Data: paper PMC6643279 (Biochemistry, 2018)

Legend:
Experiment in all cases: purified protein
[1] = system: CC(=O)Oc1c[nH]c2ccccc12; details: pH 8.3; 30.0 °C
[2] = system: CC(=O)Oc1ccc2ccccc2c1; details: pH 8.0; 30.0 °C
[3] = system: CC(=O)OCC(COP(=O)(O)O)OC(C)=O; details: pH 8.0; 30.0 °C

Work on “phosphotriesterase homology protein (PHP) (Escherichia coli K-12)” yielded a Km [1] of 1800 ± 200 µM, a kcat/Km [1] of 180 ± 20 M⁻¹ s⁻¹ and a Km [2] of 1800 ± 200 µM. The kcat/Km [2] was 1400 ± 200 M⁻¹ s⁻¹, the Km [3] was 6000 ± 500 µM and the kcat/Km [3] was 4600 ± 650 M⁻¹ s⁻¹.
